Test results from article PMC11187910.
One block for each substance: values may come before it.

How the values were obtained:
[1] = biological target: IDH1 (UniProt O75874); assay: co-IP of Flag-IDH1 and HA-IDH1; conditions: reference: Flag-IDH1 wild type, MPA; sites T77
[2] = biological target: OCT6 (POU3F1) (UniProt Q03052); assay: co-immunoprecipitation; conditions: reference: wild type, MPA; sites T77
[3] = biological target: isocitrate (ICT); assay: SPR; conditions: 1:1 binding model

Chain of UniProt O75874 (O75874 whole entry T77A): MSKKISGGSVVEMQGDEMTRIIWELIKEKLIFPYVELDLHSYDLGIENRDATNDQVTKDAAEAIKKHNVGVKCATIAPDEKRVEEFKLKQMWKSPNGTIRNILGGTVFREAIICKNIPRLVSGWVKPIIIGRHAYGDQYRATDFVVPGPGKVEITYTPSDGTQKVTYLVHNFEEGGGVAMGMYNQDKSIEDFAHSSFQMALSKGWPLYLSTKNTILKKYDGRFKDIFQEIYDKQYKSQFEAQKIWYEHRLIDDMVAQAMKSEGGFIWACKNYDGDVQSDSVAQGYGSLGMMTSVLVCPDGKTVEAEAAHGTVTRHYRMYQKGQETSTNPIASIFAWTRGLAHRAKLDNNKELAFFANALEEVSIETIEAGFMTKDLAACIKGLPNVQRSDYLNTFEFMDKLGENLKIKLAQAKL

binding against the reference [1]: weaker
Substance: IDH1 (from UniProt O75874) Flag-IDH1 T77A, MPA

binding against the reference [2]: weaker
Substance: IDH1 (from UniProt O75874) T77A, MPA

Kd [3]: 112 nM
Substance: recombinant IDH1 WT T77A
